Assay results as given in patent US20190381086.

Target: Ubc12^N8 made with wild type Ubc12 (thioester-linked to NEDD8), purified, P61081
Sequence (P61081 whole entry, looked up): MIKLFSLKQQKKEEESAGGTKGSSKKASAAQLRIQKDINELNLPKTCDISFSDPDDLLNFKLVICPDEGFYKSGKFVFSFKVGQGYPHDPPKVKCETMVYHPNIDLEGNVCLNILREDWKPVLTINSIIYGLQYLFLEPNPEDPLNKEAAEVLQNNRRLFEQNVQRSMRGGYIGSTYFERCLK

B1: full-length human GlyRS (protein)
chain: MDGAGAEEVLAPLRLAVRQQGDLVRKLKEDKAPQVDVDKAVAELKARKRVLEAKELALQPKDDIVDRAKMEDTLKRRFFYDQAFAIYGGVSGLYDFGPVGCALKNNIIQTWRQHFIQEEQILEIDCTMLTPEPVLKTSGHVDKFADFMVKDVKNGECFRADHLLKAHLQKLMSDKKCSVEKKSEMESVLAQLDNYGQQELADLFVNYNVKSPITGNDLSPPVSFNLMFKTFIGPGGNMPGYLRPETAQGIFLNFKRLLEFNQGKLPFAAAQIGNSFRNEISPRSGLIRVREFTMAEIEHFVDPSEKDHPKFQNVADLHLYLYSAKAQVSGQSARKMRLGDAVEQGVINNTVLGYFIGRIYLYLTKVGISPDKLRFRQHMENEMAHYACDCWDAESKTSYGWIEIVGCADRSCYDLSCHARATKVPLVAEKPLKEPKTVNVVQFEPSKGAIGKAYKKDAKLVMEYLAICDECYITEMEMLLNEKGEFTIETEGKTFQLTKDMINVKRFQKTLYVEEVVPNVIEPSFGLGRIMYTVFEHTFHVREGDEQRTFFSFPAVVAPFKCSVLPLSQNQEFMPFVKELSEALTRHGVSHKVDDSSGSIGRRYARTDEIGVAFGVTIDFDTVNKTPHTATLRDRDSMRQIRAEISELPSIVQDLANGNITWADVEARYPLFEGQETGKKETIEE
For B1, the “stability (half-life) of Ubc12^N8 in vitro at 37°, SDS-PAGE” value was “In the presence of GlyRS, but not BSA, Ubc12^N8 was significantly more stable than in the absence of GlyRS”.
